Experimental data published in patent publication US20030036642, “Platelet derived growth factor (PDGF) nucleic acid ligand complexes” (published 2003).
Residue numbers refer to the chain shown, from its start.

B1: 36ta (ssDNA)
DNA: CAGGCTACGGCACGTAGAGCATCACCATGATCCTGT
modifications: 3'-3' inverted T at nt 36
B2: 1074 (ssDNA)
DNA: CACAGGCTACGGCACGUAGAGCATCACCATGATCCTGTG
modifications: 2'-OMe C10,G11,G12,C13,A14,C15,G16,U17; 3'-3' inverted T at nt 40
B3: 1075 (ssDNA)
DNA: B2 DNA with U17T, T30U
modifications: 2'-OMe A26,C27,C28,A29,U30; 3'-3' inverted T at nt 40
B4: 1076 (ssDNA)
DNA: B2 DNA with T30U
modifications: 2'-OMe C1,A2,C3,C10,G11,G12,C13,A14,C15,G16,U17,A26,C27,C28,A29,U30; 3'-3' inverted T at nt 40
B5: 1145 (ssDNA)
DNA: CACAGGCTACGGCACGTAGAGCATCACCATGATCCTGTGT
modifications: 2'-OMe C25,A26,C27,C28,A29; 3'-3' inverted T at nt 40
B6: 1148 (ssDNA)
DNA: B2 DNA with T8U, U17T
modifications: 2'-OMe A4,G5,G6,C7,U8,A9; 3'-3' inverted T at nt 40
B7: 1144 (ssDNA)
DNA: B2 DNA with U17T, T33U, T36U
modifications: 2'-OMe G31,A32,U33,C34,C35,U36; 3'-3' inverted T at nt 40
B8: 1142 (ssDNA)
DNA: B2 DNA with T24U
modifications: 2'-OMe U17,A23,U24; 3'-3' inverted T at nt 40
B9: 1149 (ssDNA)
DNA: B5 DNA
modifications: 2'-OMe G19,A20,G21,C22; 3'-3' inverted T at nt 40
B10: EV1 (ssDNA)
DNA: B5 DNA
modifications: 2'-OMe A20,G21,C22; 3'-3' inverted T at nt 40
B11: EV2 (ssDNA)
DNA: B2 DNA
modifications: 2'-OMe G12,C13,A14,C15,G16,U17; 3'-3' inverted T at nt 40
B12: EV3 (ssDNA)
DNA: B5 DNA
modifications: 2'-OMe C10,G11,G12,C13,A14; 3'-3' inverted T at nt 40
B13: EV4 (ssDNA)
DNA: B5 DNA
modifications: 2'-OMe C1,A2,C3,A4; 3'-3' inverted T at nt 40
B14: EV5 (ssDNA)
DNA: B2 DNA with U17T, T36U, T38U
modifications: 2'-OMe U36,G37,U38,G39; 3'-3' inverted T at nt 40
B15: 1157 (ssDNA)
DNA: B5 DNA
modifications: 2'-F C7; 3'-3' inverted T at nt 40
B16: 1160 (ssDNA)
DNA: B5 DNA
modifications: 2'-F C22; 3'-3' inverted T at nt 40
B17: 1161 (ssDNA)
DNA: B5 DNA
modifications: 2'-F C25; 3'-3' inverted T at nt 40
B18: 1162 (ssDNA)
DNA: B5 DNA
modifications: 2'-F C34; 3'-3' inverted T at nt 40
B19: 1165 (ssDNA)
DNA: B5 DNA
modifications: 2'-F C35; 3'-3' inverted T at nt 40
B20: 1164 (ssDNA)
DNA: B2 DNA with U17T
modifications: 2'-F U8; 3'-3' inverted T at nt 40
B21: 1166 (ssDNA)
DNA: B2 DNA with U17T
modifications: 2'-F U17; 3'-3' inverted T at nt 40
B22: 1159 (ssDNA)
DNA: B2 DNA with U17T
modifications: 2'-F U24; 3'-3' inverted T at nt 40
B23: 1163 (ssDNA)
DNA: B2 DNA with U17T
modifications: 2'-F U30; 3'-3' inverted T at nt 40
B24: 1158 (ssDNA)
DNA: B2 DNA with U17T
modifications: 2'-F U33; 3'-3' inverted T at nt 40
B25: 1257 (ssDNA)
DNA: B2 DNA with U17T, T38U
modifications: 2'-OMe C10,G11,G12,C13,A14,A26,C27,C28,A29,G37,U38,G39; 2'-F C34; 3'-3' inverted T at nt 40
B26: 1265 (ssDNA)
DNA: B2 DNA with U17T, T36U, T38U
modifications: 2'-OMe C10,G11,G12,C13,A14,C25,A26,C27,C28,A29,U36,G37,U38,G39; 2'-F C34; 3'-3' inverted T at nt 40
B27: 1266 (ssDNA)
DNA: CACAGGCUACGGCACGTAGAGCAUCACCATGATCCUGUG
modifications: 2'-F U8,U24,C25,C34,C35; 2'-OMe C10,G11,G12,C13,A14,A26,C27,C28,A29,U36,G37,U38,G39; 3'-3' inverted T at nt 40
B28: 1267 (ssDNA)
DNA: B27 DNA with U8T, U24T
modifications: 2'-OMe C10,G11,G12,C13,A14,C25,A26,C27,C28,A29,U36,G37,U38,G39; 2'-F C34,C35; 3'-3' inverted T at nt 40
B29: 1269 (ssDNA)
DNA: B27 DNA with U24T
modifications: 2'-F U8,C34; 2'-OMe C10,G11,G12,C13,A14,C25,A26,C27,C28,A29,U36,G37,U38,G39; 3'-3' inverted T at nt 40
B30: 1295 (ssDNA)
DNA: CAGGCUACGGCACGTAGAGCAUCACCATGATCCUG
modifications: 2'-F U6,U22,C23,C32,C33; 2'-OMe C8,G9,G10,C11,A12,A24,C25,C26,A27,U34,G35; 3'-3' inverted T at nt 36
B31: 1296 (ssDNA)
DNA: CAGGCUCGGCACGAGAGCAUCACCATGATCCUG
modifications: 2'-F U6,U20,C21,C30,C31; 2'-OMe C7,G8,G9,C10,A11,A22,C23,C24,A25,U32,G33; 3'-3' inverted T at nt 34
B32: 1297 (ssDNA)
DNA: CAGGCUCGGCACGAGAGCAUCCCAGATCCUG
modifications: 2'-F U6,U20,C21,C28,C29; 2'-OMe C7,G8,G9,C10,A11,C22,C23,A24,U30,G31; 3'-3' inverted T at nt 32
B33: 1303 (ssDNA)
DNA: B30 DNA
modifications: 2'-F U6; 2'-OMe C8,G9,G10,C11,A12,U22,C23,A24,C25,C26,A27,C32,C33,U34,G35; 3'-3' inverted T at nt 36
B34: 1304 (ssDNA)
DNA: B30 DNA
modifications: 2'-OMe C5,U6,A7,C8,G9,G10,C11,A12,U22,C23,A24,C25,C26,A27,C32,C33,U34,G35; 3'-3' inverted T at nt 36
B35: 1305 (ssDNA)
DNA: B30 DNA
modifications: 2'-OMe C5,U6,C8,G9,G10,C11,A12,A18,U22,C23,A24,C25,C26,A27,C32,C33,U34,G35; 3'-3' inverted T at nt 36
B36: 1306 (ssDNA)
DNA: B30 DNA
modifications: 2'-OMe C5,U6,C8,G9,G10,C11,A12,G19,U22,C23,A24,C25,C26,A27,C32,C33,U34,G35; 3'-3' inverted T at nt 36
B37: 1327 (ssDNA)
DNA: B30 DNA
modifications: 2'-F U6,U22,C23,C32,C33; 2'-OMe C8,G9,G10,C11,A12,G19,A24,C25,C26,A27,U34,G35; 3'-3' inverted T at nt 36
B38: 1328 (ssDNA)
DNA: B30 DNA
modifications: 2'-F U6,U22,C23,C32,C33; 2'-OMe C8,G9,G10,C11,A12,G19,C20,A24,C25,C26,A27,U34,G35; 3'-3' inverted T at nt 36
B39: 1329 (ssDNA)
DNA: B30 DNA
modifications: 2'-F U6,U22,C23,C32,C33; 2'-OMe C8,G9,G10,C11,A12,G17,G19,C20,A24,C25,C26,A27,U34,G35; 3'-3' inverted T at nt 36
B40: 1369 (ssDNA)
DNA: B30 DNA
modifications: 2'-F U6,U22,C23,C32,C33; 2'-OMe C8,G9,G10,C11,A12,G17,G19,A24,C25,C26,A27,U34,G35; 3'-3' inverted T at nt 36
B41: 1374 (ssDNA)
DNA: B30 DNA
modifications: 2'-F U6,U22,C23,C32,C33; 2'-OMe A7,C8,G9,G10,C11,A12,G17,G19,A24,C25,C26,A27,U34,G35; 3'-3' inverted T at nt 36
B42: 20t (ssDNA)
DNA: TGGGAGGGCGCGTTCTTCGTGGTTACTTTTAGTCCCGT
modifications: 3'-3' inverted T at nt 38
B43: 36t (ssDNA)
DNA: B5 DNA
modifications: 3'-3' inverted T at nt 40
B44: 41t (ssDNA)
DNA: TACTCAGGGCACTGCAAGCAATTGTGGTCCCAATGGGCTGAGTAT
modifications: 3'-3' inverted T at nt 45

Target: T1, PDGF-BB (mature B-chain homodimer) (Homo sapiens, UniProt P01127 P01127:82-190)
T1 sequence (P01127 82-190, one chain of several): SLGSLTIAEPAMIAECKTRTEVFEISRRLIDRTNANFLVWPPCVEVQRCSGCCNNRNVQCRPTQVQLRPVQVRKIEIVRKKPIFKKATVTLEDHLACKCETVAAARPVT
Assay: filter; printed as 0.159 ± 13 pM, unit evidently nM ± pM
Conditions: tags: R&D Systems, expressed in E. coli, carrier-free; chain copies: 2 B-chains (stated as BB isoform)
Method: (§1) Determination of the apparent equilibrium dissociation constants and the dissociation rate constants. The binding of ssDNA ligands at low concentrations to varying concentrations of PDGF was determined by the nitrocellulose filter binding method as described (Green et al. (1995) Chemistry and Biology 2:683-695). […] All ssDNA ligands were heated at 90° C. in binding buffer at high dilution (≈1 nM) for 2 min and cooled on ice prior to further dilution into the protein solution. The binding mixtures were typically incubated for 15 min at 37° C. before partitioning on nitrocellulose filters.

Work on B1 yielded a Kd of 0.159 nM.

Target: PDGF-AB (A-chain/B-chain heterodimer) (Homo sapiens, UniProt P04085;P01127 P04085:87-211,P01127:82-190)
Sequence (P01127 82-190, chain 2 of 2, other chains not shown): as the sequence (P01127 82-190, one chain of several) above
Assay: filter
Conditions: tags: R&D Systems, expressed in E. coli, carrier-free
Method: as §1

Going from B2 to B3, the binding signal rises from 3.1 Kd ligand/Kd 36t to 10 Kd ligand/Kd 36t.

Going from B4 to B5, the binding signal falls from 440 Kd ligand/Kd 36t to 0.27 Kd ligand/Kd 36t.

First: B6
Second: B7
The binding signal of the first is lower: 281 Kd ligand/Kd 36t for the first, 994 Kd ligand/Kd 36t for the second.

Compared with B8, B9 is lower in binding signal: 12.9 Kd ligand/Kd 36t for the first, 2.9 Kd ligand/Kd 36t for the second.

Compared with B10, B11 is lower in binding signal: 35.1 Kd ligand/Kd 36t for the first, 5.3 Kd ligand/Kd 36t for the second.

First: B12
Second: B13
The binding signal of the first is lower: 1.5 Kd ligand/Kd 36t for the first, 4.5 Kd ligand/Kd 36t for the second.

Compared with B14, B15 is lower in binding signal: 2.3 Kd ligand/Kd 36t for the first, 1 Kd ligand/Kd 36t for the second.

First: B16
Second: B17
The binding signal of the first is higher: 1.4 Kd ligand/Kd 36t for the first, 0.22 Kd ligand/Kd 36t for the second.

Compared with B18, B19 is higher in binding signal: 0.52 Kd ligand/Kd 36t for the first, 0.61 Kd ligand/Kd 36t for the second.

Compared with B20, B21 is higher in binding signal: 0.45 Kd ligand/Kd 36t for the first, 0.76 Kd ligand/Kd 36t for the second.

Compared with B22, B23 is higher in binding signal: 0.37 Kd ligand/Kd 36t for the first, 1.3 Kd ligand/Kd 36t for the second.

Compared with B24, B25 is lower in binding signal: 2.4 Kd ligand/Kd 36t for the first, 1.3 Kd ligand/Kd 36t for the second.

Going from B26 to B27, the binding signal falls from 1.4 Kd ligand/Kd 36t to 1 Kd ligand/Kd 36t.

Going from B28 to B29, the binding signal falls from 4.2 Kd ligand/Kd 36t to 0.87 Kd ligand/Kd 36t.

First: B30
Second: B31
The binding signal of the first is lower: 0.9 Kd ligand/Kd 36t for the first, 2.1 Kd ligand/Kd 36t for the second.

Compared with B32, B33 is higher in binding signal: 2.9 Kd ligand/Kd 36t for the first, 5.8 Kd ligand/Kd 36t for the second.

First: B34
Second: B35
The binding signal of the first is higher: 607 Kd ligand/Kd 36t for the first, 196 Kd ligand/Kd 36t for the second.

Compared with B36, B37 is lower in binding signal: 4.4 Kd ligand/Kd 36t for the first, 0.63 Kd ligand/Kd 36t for the second.

First: B38
Second: B39
The binding signal of the first is higher: 2.2 Kd ligand/Kd 36t for the first, 0.72 Kd ligand/Kd 36t for the second.

Going from B40 to B41, the binding signal rises from 0.37 Kd ligand/Kd 36t to 1.5 Kd ligand/Kd 36t.

Target: T1, PDGF-BB (mature B-chain homodimer)
Assay: inhibition; 125I-PDGF-BB binding to alpha-receptor on PAE cells, 4 C
Conditions: tags: R&D Systems, expressed in E. coli, carrier-free; chain copies: 2 B-chains (stated as BB isoform); three-way helix junction
Method: Receptor Binding Assay. The binding of ′ ²⁵I-PDGF-AA and ¹²⁵I-PDGF-BB to porcine aortic endothelial (PAE) cells transfected with PDGF α- or β-receptors were performed as described (Heldin et al., (1988) EMBO J. 7:1387-1394). Different concentrations of DNA ligands were added to the cell culture (1.5 cm²) in 0.2 ml of phosphate buffered saline supplemented with 1 mg bovine serum albumin per ml together with ¹²⁵I-PDGF-AA (2 ng, 100,000 cpm) or ¹²⁵I-PDGF-BB (2 ng, 100,000 cpm). After incubation at 4° C. for 90 min, the cell cultures were washed and cell associated radioactivity determined in a g-counter (Heldin et al., (1988) EMBO J. 7:1387-1394).

B42 and B43 are the same in IC50: ~1 nM for the first, ~1 nM for the second.

B44 gave an IC50 of ~1 nM.
